Data published in US20260070994A1 (PASSION TECHNOLOGY ZHUHAI PARTNERSHIP LIMITED PARTNERSHIP, published 2026).
Where a chain is given by its changes, count along the chain named.

T1: CD25-His recombinant protein (human, UniProt P01589 22-240, limits assumed)
T1 construct: Recombinant antigen made by the applicant; also called CD25-His antigen; CD25 antigen; not shown: His tag
T1 sequence (looked up): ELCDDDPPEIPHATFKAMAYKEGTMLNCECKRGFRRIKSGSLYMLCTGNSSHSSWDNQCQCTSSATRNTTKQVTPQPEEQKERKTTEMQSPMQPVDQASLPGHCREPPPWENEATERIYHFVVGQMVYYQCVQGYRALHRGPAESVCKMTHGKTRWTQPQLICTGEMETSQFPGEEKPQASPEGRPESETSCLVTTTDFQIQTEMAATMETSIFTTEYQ

T2: CD25 on the CHO-CD25-overexpressing cell line (human, UniProt P01589 22-272)
T2 chain: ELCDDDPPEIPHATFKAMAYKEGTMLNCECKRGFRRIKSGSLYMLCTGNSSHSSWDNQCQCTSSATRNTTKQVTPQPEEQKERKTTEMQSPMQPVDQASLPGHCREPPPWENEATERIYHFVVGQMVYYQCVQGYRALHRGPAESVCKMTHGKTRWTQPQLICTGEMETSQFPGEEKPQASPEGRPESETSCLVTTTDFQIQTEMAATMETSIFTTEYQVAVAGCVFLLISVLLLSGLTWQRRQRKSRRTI

T3: CD25 on the CHO-CD25-overexpressing cell line (human, UniProt P01589 22-272)
T3 sequence (looked up): T2 chain

T4: CD25-His recombinant protein (human, UniProt P01589 22-240)
T4 chain: T1 sequence (looked up)

B1: clone A07 (VHH)
VHH: EVQLVESGGGLAQPGGSLRLSCAVSGFTLDYYAIGWFRQAPGKEREGVSCISGSDGRTAYTDSVKGRFTISKDNAKNTVYLQMNSLKPEDTAVYYCAADPGYYCAGEVRYAGSLYDYWGQGTQVTVSS
notes: Recombinant antibody from a eukaryotic expression vector (293F); also called A-A7; A-A07-VHH
B2: A07-HM5 (VHH)
VHH: B1 VHH with A12V, E44G, R45L, T61A, K87R, P88A, Q123L
B3: A07-HM6 (VHH)
VHH: B1 VHH with V5L, A12V, E44G, R45L, T61G, K87R, P88A, Q123L
B4: B04 (VHH)
VHH: QVQLVESGGGLVQPGGSLRLSCATSGFTLDYYAIGWFRQAPGKEREGVSCISSSDGTTAYADSVKGRFTISTDNARNTVYLQMNSLKPEDTAVYYCAADLGYYCADNVRYAGSLYDYWGQGTQVTVSS
B5: E08 (VHH)
VHH: AVQLVESGGGLVQPGGSLRLSCAASGFTFSSYPMGWYRQAPGEECELVAGITSAGGSTNYADSVKGRFTISRDNAKNTVYLQMNSLKPEDTAVYYCNTDPRYYTDSRGPCSWGQGTQVTVSS
B6: A05 (VHH)
VHH: QVQLVESGGGLAQPGGSLRLSCAASGFTFSIYAMSWARQAPGKGLEWVSGIYSDSSYTYYADSVKGRFTISRDNAKNTLYLQMNSLKPEDTALYYCLKARGSGSYYPFDDYRGQGTQVTVSS
B7: G10 (VHH)
VHH: DVQLVESGGGLAQPGGSLRLSCAASGFTFSNYAMNWLRQAPGKGLEWVSGIYSDSSGTYYADSVKGRFTISRDNAKNTLYLQMNSLKPEDTALYYCAKASNSGSYYPWDDDWGQGTQVTVSA
B8: A11 (VHH)
VHH: DVQLVESGGGLVQPGGSLRLSCAASGFTFSSYAMSWYRQAPGKERELVAYITTSPGYTTYTDSVKGRFTISRDNAKNTVYLQMNSLKPDDTAVYYCNAWRGAPRGDYWGQGTQVTVSS
B9: D01 (VHH)
VHH: QVQLVESGGGLAQPGGSLRLSCAASGFTFSNFAVSWARQVAGEGFEWVSGVYSDGDTYYADSVKDRFIISRDNAKNTLYLQMNSLKPEDTALYYCGAARGRLCSSIMTCDYWGQGTQVTVSS
B10: D04 (VHH)
VHH: QVQLVESGGGLVQPGGSLRLSCAASGFTFSSSAVSWARLTPGKRLEWVSAIASDGSTYYADSMQGRFTISRDNAKNTVYLQMNSLKPEDTAVYYCAIPRDGLVPVFGIDYWGQGTQVTVSS
B11: B10 (VHH)
VHH: EVQLVESGGGLVQPGGSLRLSCAVFGVTLDSYAIGWFRQAPGKEREGVSCISTSDGRTWETDAVLGRFTISRDNAKNTVYLQMNDLKPEDTAVYYCGADGRDWCSAHVYSRYEYDYSGQGTQVTVSS
notes: Tested as transfection supernatant

target: T1, CD25-His recombinant protein; assay: ELISA on human CD25 antigen, antibody 0.016 µg/ml

Binder	ELISA OD
B1	0.2

Target: T2, CD25 on the CHO-CD25-overexpressing …
Assay: FACS

Binder	EC50
B2	0.632 µg/mL
B1	0.399 µg/mL
B3	0.772 µg/mL

Target: T2, CD25 on the CHO-CD25-overexpressing …
Assay: FACS
Remark: another data set of the same source

Binder	EC50
B4	7.02 µg/mL
B5	1.14 µg/mL
B1	2.8 µg/mL
B6	1.59 µg/mL
B7	1.88 µg/mL
B8	2.8 µg/mL
B9	1.27 µg/mL

target: T3, CD25 on the CHO-CD25-overexpressing …; assay: cell-based or functional assay

Binder	ADCC EC50
B2	0.0074 µg/mL
B1	0.0186 µg/mL
B3	0.0047 µg/mL

target: T1, CD25-His recombinant protein; assay: ELISA on human CD25 antigen, antibody 10 µg/ml

Binder	ELISA OD
B1	4.39

Target: T4, CD25-His recombinant protein
Assay: BLI

Binder	Kd
B2	9.62 nM
B1	6.67 nM
B3	14.6 nM

Target: T4, CD25-His recombinant protein
Assay: ELISA

Binder	EC50
B4	0.164 µg/mL
B5	0.00875 µg/mL
B1	0.0559 µg/mL
B6	0.0177 µg/mL
B7	0.0193 µg/mL
B8	0.0128 µg/mL
B9	0.0261 µg/mL
B10	0.0281 µg/mL

target: T1, CD25-His recombinant protein; assay: ELISA on CD25 antigen, transfection supernatant 5 µL
Protocol: The CD25-His protein was coated on a 96-well microplate. After the candidate antibodies were transiently transfected into 293F cells for 48 hours, the supernatant was collected and ELISA detection was performed.

Binder	ELISA OD
B11	4.38
